Source: patent publication US20260098102A1 (NATIONAL UNIVERSITY CORPORATION KOBE UNIVERSITY, published 2026)

B1: human chimeric anti-SIRPA antibody cD13 (antibody, human IgG4 S228P, kappa, F234A L235A, V domains shown)
VH: EVQLVESGGGLVQPGRSLKLSCLASGFTFSDYGMIWVRQAPGKGLEWVASISSSSSYIYYADTVKGRFTISRENAKNTLFLHMTSLRSEDTALYYCARRYYGFNYPFDYWGQGVMVTVSS
VL: DTVLTQSPALAVSLGQRVTISCGASKSVRTYMHWYQQKSGQQPKLLIYSASNLEAGVPSRFSGSGSGTDFTLTIDPVEADDIANYYCQQSNEPPYTFGAGTKLELKR
notes: Human IgG4proFALA heavy chain, human kappa light chain; also called cD13 (IgG4pf); human chimeric antibody D13
B2: humanized anti-SIRPA antibody hD13_H1L3 (antibody, human IgG4 S228P, kappa, F234A L235A, V domains shown)
VH: QVQLVESGGGVVQPGRSLRLSCAASGFTFSDYGMIWVRQAPGKGLEWVASISSSSSYIYYADSVKGRFTISRDNSKNRLYLQMNSLRAEDTAVYYCARRYYGFNYPFDYWGQGTMVTVSS
VL: DTQLTQSPSSLSASVGQRVTITCGASKSVRTYMHWYQQKPGKQPKLLIYSASNLEAGVPSRFSGSGSGTDFTLTISSLQPEDFATYYCQQSNEPPYTFGQGTKLEIKR
notes: hH1 heavy chain (IgG4proFALA) and hL3 kappa light chain; also called hD13_HIL3; HIL3 antibody

Tests used:
human SIRPA_V1 protein = molecular target: T1, human SIRPA_V1 protein (human, UniProt P78324 31-504); assay: blocking cell-based ELISA: peroxidase-labeled CD47-Fc (10,000 ng/mL) on 293α cells expressing SIRPA_V1; y axis = CD47-Fc signal in % of no antibody [i]
T1 construct: Expressed on 293α cells from pcDNA3.2 V5-DEST or pFLAG V5-DEST (FLAG-tagged) vectors; also called human SIRPA Variant 1; hSIRPA V1
T1 sequence (P78324 31-504 limits assumed): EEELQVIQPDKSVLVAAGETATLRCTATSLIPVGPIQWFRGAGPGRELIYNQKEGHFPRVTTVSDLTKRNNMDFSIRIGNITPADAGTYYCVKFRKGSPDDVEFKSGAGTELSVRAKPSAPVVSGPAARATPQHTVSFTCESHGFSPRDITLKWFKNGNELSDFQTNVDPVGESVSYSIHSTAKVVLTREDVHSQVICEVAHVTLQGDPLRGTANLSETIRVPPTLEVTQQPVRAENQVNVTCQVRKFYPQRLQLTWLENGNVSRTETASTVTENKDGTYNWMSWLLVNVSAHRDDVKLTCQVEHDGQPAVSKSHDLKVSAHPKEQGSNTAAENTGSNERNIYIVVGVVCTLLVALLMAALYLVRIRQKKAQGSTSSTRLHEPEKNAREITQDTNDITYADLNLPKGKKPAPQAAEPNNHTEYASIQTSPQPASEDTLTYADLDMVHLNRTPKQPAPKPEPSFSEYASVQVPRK
Description: After the culture supernatant of the human SIRPA and monkey SIRPA expression vector-introduced 293α cells prepared in Examples 5)-1 and 5)-2, respectively, was removed, 50 μL per well of cD13 (IgG2 and IgG4pf), cF44 (four different constant regions IgG1, IgG2, IgG4p, and IgG4pf), and cF63 (IgG2 and IgG4pf) diluted with 5% FBS-containing PBS to final concentrations of 0 to 10,000 ng/mL were added to each of pcDNA3.2 V5-DEST-SIRPA_V1, pcDNA3.2 V5-DEST-monkey SIRPA, and pcDNA3.2 V5-DEST-introduced 293α cells, immediately followed by addition of 50 μL per well of peroxidase-labeled CD47-Fc prepared in 5% FBS-containing PBS at a final concentration of 10,000 ng/ml, and the mixture was allowed to stand at 4° C. for one hour. Thereafter, the SIRPA-CD47 binding inhibitory activity was evaluated in the same manner as in 1)-6-3.

human SIRPA_V2 protein = molecular target: T2, human SIRPA_V2 protein (human, UniProt P78324 31-504); assay: blocking cell-based ELISA: peroxidase-labeled CD47-Fc (10,000 ng/mL) on 293α cells expressing SIRPA_V2; y axis = CD47-Fc signal in % of no antibody [ii]
T2 construct: Expressed on 293α cells from pcDNA3.2 V5-DEST or pFLAG V5-DEST (FLAG-tagged) vectors; also called human SIRPA Variant 2; ECD variant (full-length, amino acids 1 to 504)

human SIRPB = molecular target: T3, human SIRPB (human, UniProt O00241 30-398); assay: flow cytometry on CHO-K1 cells expressing FLAG-tagged human SIRPB; PE anti-human IgG; MFI standardized to secondary antibody alone
T3 construct: whole, on cells; FLAG-tagged (pFLAG V5-DEST), on CHO-K1 cells; also called SIRPβ1; signal regulatory protein β1
T3 sequence (O00241 30-398): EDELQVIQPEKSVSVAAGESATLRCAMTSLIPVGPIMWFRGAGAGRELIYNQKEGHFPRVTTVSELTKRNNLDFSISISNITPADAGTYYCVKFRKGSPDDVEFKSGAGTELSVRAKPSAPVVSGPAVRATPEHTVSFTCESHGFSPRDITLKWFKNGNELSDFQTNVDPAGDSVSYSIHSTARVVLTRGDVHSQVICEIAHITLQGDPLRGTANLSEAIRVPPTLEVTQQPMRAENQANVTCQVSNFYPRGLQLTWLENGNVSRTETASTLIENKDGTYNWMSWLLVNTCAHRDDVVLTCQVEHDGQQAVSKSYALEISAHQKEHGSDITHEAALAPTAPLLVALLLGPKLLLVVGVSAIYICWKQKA
Description: SIRPβ1 (signal regulatory protein β1: the amino acid sequence thereof is published as RefSeq accession number NP_006056) and SIRPγ (signal regulatory protein γ: the amino acid sequence thereof is published as RefSeq accession number NP_061026) are molecules belonging to the SIRPA family. In the present invention, “SIRPα” may be referred to as “SIRPA,” “SIRPβ1” may be referred to as […] and “SIRPγ” may be referred to as “SIRPG.” CHO-K1 cells were prepared in a 10% FBS-containing Ham's F-12K medium at 3.3×10⁵ cells/mL and cultured overnight at 37° C. under a 5% CO₂ condition. pFLAG V5-DEST-human SIRPβ, pFLAG V5-DEST-human SIRPG, or pFLAG V5-DEST was introduced into the cells using Lipofectamine LTX (Invitrogen), and cells were cultured in a 10% FBS-containing Ham's F-12K medium at 37° C. under a 5% CO₂ condition for 24 hours. The obtained introduced cells were collected and seeded on a 96-well plate. After the culture supernatant was removed, 100 μL per well of various anti-human SIRPA antibodies or various control human IgG was added to each of various gene introduced cells at a final concentration of 0 to 10,000 ng/mL, and the mixture was allowed to stand at 4° C. for 25 minutes. After the mixture was centrifuged, the supernatant was removed, and cells were washed twice with 5% FBS-containing PBS. After the mixture was centrifuged, the supernatant was removed, 50 μL per well of a 1/400 diluted solution of PE Mouse anti-Human IgG antibody (BioLegend) was added, and the mixture was allowed to stand at 4° C. for 25 minutes. After the mixture was centrifuged, the supernatant was removed, and cells were washed twice with 5% FBS-containing PBS.
After the mixture was centrifuged, and the supernatant was removed, cells were suspended in 100 μL per well of 1× BD Stabilizing Fixative (Becton Dickinson), and the cell count was measured by flow cytometry (FACS Canto II: Becton Dickinson). For data analysis, FlowJo (TreeStar) was used. Cells were characterized by detecting forward scattered (FSC) light and side-scattered (SSC) light, and then the mean fluorescence intensity of PE was calculated. Binding of various antibodies to the family molecules was calculated by standardizing the fluorescence intensity using the mean fluorescence intensity of a sample in which the secondary antibody alone was allowed to react.

Binder | IC50 (read off the curve) (human SIRPA_V1 protein) | IC50 (read off the curve) (human SIRPA_V2 protein) | EC50 (read off the curve) (human SIRPB)
B1 | ~0.1 µg/mL | ~0.3 µg/mL | –
B2 | – | – | ~0.03 µg/mL
